System: BamHI
Assay: EMSA
Details: value is complex half-life, not a rate; 5 mM CaCl2, no Mg2+; 2 nM BamHI, 100 pM DNA, 6000-fold unlabeled competitor

DNA duplex with single BamHI site
complex half-life (min (half-life)): 39600
